Test results as given in patent publication US20200216522A1 (DENALI THERAPEUTICS, published 2020).

These binders were tested against T1, full-length human Tau (Tau441; 2N4R), recombinant (human, UniProt P10636 1-758) (assay: SPR Biacore).
T1 construct: made in E. coli, His6-Smt3 tag removed; biotinylated through amines for Octet and phage work; also called r-Tau; recombinant Tau
Procedure: IgG was purified with protein A affinity chromatography. The affinity of each hulC7 IgG variant for r-Tau was determined by surface plasmon resonance using a Biacore™ T200 instrument. Biacore™ Series S CM5 sensor chips were immobilized with monoclonal mouse anti-human IgG (Fc) antibody (Human antibody capture kit from GE Healthcare). Serial 3-fold dilutions of each hulC7 variant were injected at a flow rate of […]. Each sample was analyzed with 3-minute association and 10-minute dissociation. After each injection, the chip was regenerated using 3 M MgCl₂. Binding response was corrected by subtracting the RU from a flow cell capturing an irrelevant IgG at similar density. A 1:1 Languir model of simultaneous fitting of kₒₙ and koff was used for kinetics analysis.
A further round of affinity maturation was performed by mutating certain amino acids in selected CDR-H1, CDR-L1, and CDR-L3 sequences from Table 9A, as well as the sequence of CDR-H2 (SEQ ID NO:23) of hulC7.v2. Sequence changes were identified in each CDR (Table 9B). Binding affinities were evaluated using Biacore™ (Table 10B).

T1 sequence (P10636 other isoform, or with tags, fused parts or gaps limits assumed): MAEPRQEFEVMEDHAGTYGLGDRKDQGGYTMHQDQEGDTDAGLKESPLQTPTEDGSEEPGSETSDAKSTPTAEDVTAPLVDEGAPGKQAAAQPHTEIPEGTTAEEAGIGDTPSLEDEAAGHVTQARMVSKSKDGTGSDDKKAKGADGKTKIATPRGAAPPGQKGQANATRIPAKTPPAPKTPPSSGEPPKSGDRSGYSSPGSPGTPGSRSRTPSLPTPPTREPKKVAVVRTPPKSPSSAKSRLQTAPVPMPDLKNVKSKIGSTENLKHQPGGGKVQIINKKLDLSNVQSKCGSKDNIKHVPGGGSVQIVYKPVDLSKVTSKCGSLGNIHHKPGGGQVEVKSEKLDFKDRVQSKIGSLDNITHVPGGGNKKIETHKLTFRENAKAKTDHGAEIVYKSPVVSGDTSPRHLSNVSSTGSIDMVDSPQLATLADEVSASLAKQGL

Binder	Kd [nM]	koff [s⁻¹]	kon [M⁻¹ s⁻¹]
Clone with H2_5 (antibody, V domains shown, based on hu1C7.v2) VH: EVQLLESGGGLVQPGGSLRLSCAASGFTFSSYGMSWVRQAPGKGLEWVASISGDGGSYIHYASSVKGRFTISRDNSKNTLYLQMNSLRAEDTAVYYCARLPYWGQGTLVTVSS VL: DIVMTQSPDSLAVSLGERATINCKSSQSLLNSGNQKNYLTWYQQKPGQPPKLLIYWASTRESGVPDRFSGSGSGTDFTLTISSLQAEDVAVYYCQQYNSYPLTFGQGTKVEIKR	3.79	0.00176	465000
Clone with L1_3-4 (antibody, V domains shown, based on hu1C7.v2) VH: EVQLLESGGGLVQPGGSLRLSCAASGFTFSSYGMSWVRQAPGKGLEWVASISGDGGSYIHYADSVKGRFTISRDNSKNTLYLQMNSLRAEDTAVYYCARLPYWGQGTLVTVSS VL: DIVMTQSPDSLAVSLGERATINCKSSQSLHNSGTQKDYLVWYQQKPGQPPKLLIYWASTRESGVPDRFSGSGSGTDFTLTISSLQAEDVAVYYCQQYNSYPLTFGQGTKVEIK	0.206	0.00031	1.5e+06
Clone with L3_7 (antibody, V domains shown, based on hu1C7.v2) VH: EVQLLESGGGLVQPGGSLRLSCAASGFTFSSYGMSWVRQAPGKGLEWVASISGDGGSYIHYADSVKGRFTISRDNSKNTLYLQMNSLRAEDTAVYYCARLPYWGQGTLVTVSS VL: DIVMTQSPDSLAVSLGERATINCKSSQSLLNSGNQKNYLTWYQQKPGQPPKLLIYWASTRESGVPDRFSGSGSGTDFTLTISSLQAEDVAVYYCQQYNAYPLTFGQGTKVEIKR	1.19	0.000817	685000
Clone with L1_3-2 (antibody, V domains shown, based on hu1C7.v2) VH: EVQLLESGGGLVQPGGSLRLSCAASGFTFSSYGMSWVRQAPGKGLEWVASISGDGGSYIHYADSVKGRFTISRDNSKNTLYLQMNSLRAEDTAVYYCARLPYWGQGTLVTVSS VL: DIVMTQSPDSLAVSLGERATINCKSSQSLLRSGTQKDYLVWYQQKPGQPPKLLIYWASTRESGVPDRFSGSGSGTDFTLTISSLQAEDVAVYYCQQYNSYPLTFGQGTKVEIK	0.13	0.000143	1.1e+06
Clone with L1_3-3 (antibody, V domains shown, based on hu1C7.v2) VH: EVQLLESGGGLVQPGGSLRLSCAASGFTFSSYGMSWVRQAPGKGLEWVASISGDGGSYIHYADSVKGRFTISRDNSKNTLYLQMNSLRAEDTAVYYCARLPYWGQGTLVTVSS VL: DIVMTQSPDSLAVSLGERATINCKSSQSLHYSGTQKDYLVWYQQKPGQPPKLLIYWASTRESGVPDRFSGSGSGTDFTLTISSLQAEDVAVYYCQQYNSYPLTFGQGTKVEIK	0.078	0.000214	2.72e+06
Clone with L1_3-7 (antibody, V domains shown, based on hu1C7.v2) VH: EVQLLESGGGLVQPGGSLRLSCAASGFTFSSYGMSWVRQAPGKGLEWVASISGDGGSYIHYADSVKGRFTISRDNSKNTLYLQMNSLRAEDTAVYYCARLPYWGQGTLVTVSS VL: DIVMTQSPDSLAVSLGERATINCKSSQSLHKSGTQKDYLVWYQQKPGQPPKLLIYWASTRESGVPDRFSGSGSGTDFTLTISSLQAEDVAVYYCQQYNSYPLTFGQGTKVEIK	0.275	0.000308	1.12e+06
Clone with L1_5 (antibody, V domains shown, based on hu1C7.v2) VH: EVQLLESGGGLVQPGGSLRLSCAASGFTFSSYGMSWVRQAPGKGLEWVASISGDGGSYIHYADSVKGRFTISRDNSKNTLYLQMNSLRAEDTAVYYCARLPYWGQGTLVTVSS VL: DIVMTQSPDSLAVSLGERATINCKSSQSLLSSGNQKNYLTWYQQKPGQPPKLLIYWASTRESGVPDRFSGSGSGTDFTLTISSLQAEDVAVYYCQQYNSYPLTFGQGTKVEIKR	1.39	0.000885	636000
Clone with L1_6 (antibody, V domains shown, based on hu1C7.v2) VH: EVQLLESGGGLVQPGGSLRLSCAASGFTFSSYGMSWVRQAPGKGLEWVASISGDGGSYIHYADSVKGRFTISRDNSKNTLYLQMNSLRAEDTAVYYCARLPYWGQGTLVTVSS VL: DIVMTQSPDSLAVSLGERATINCKSSQSLLQSGNQKNYLTWYQQKPGQPPKLLIYWASTRESGVPDRFSGSGSGTDFTLTISSLQAEDVAVYYCQQYNSYPLTFGQGTKVEIKR	0.665	0.00078	1.17e+06
Clone with H2_6 (antibody, V domains shown, based on hu1C7.v2) VH: not shown VL: DIVMTQSPDSLAVSLGERATINCKSSQSLLNSGNQKNYLTWYQQKPGQPPKLLIYWASTRESGVPDRFSGSGSGTDFTLTISSLQAEDVAVYYCQQYNSYPLTFGQGTKVEIKR	3.79	0.00175	462000
Clone with L1_4 (antibody, V domains shown, based on hu1C7.v2) VH: EVQLLESGGGLVQPGGSLRLSCAASGFTFSSYGMSWVRQAPGKGLEWVASISGDGGSYIHYADSVKGRFTISRDNSKNTLYLQMNSLRAEDTAVYYCARLPYWGQGTLVTVSS VL: not shown	0.577	0.000662	1.15e+06
Clone with L1_3-5 (antibody, V domains shown, based on hu1C7.v2) VH: EVQLLESGGGLVQPGGSLRLSCAASGFTFSSYGMSWVRQAPGKGLEWVASISGDGGSYIHYADSVKGRFTISRDNSKNTLYLQMNSLRAEDTAVYYCARLPYWGQGTLVTVSS VL: DIVMTQSPDSLAVSLGERATINCKSSQSLHMSGTQKDYLVWYQQKPGQPPKLLIYWASTRESGVPDRFSGSGSGTDFTLTISSLQAEDVAVYYCQQYNSYPLTFGQGTKVEIK	0.419	0.000442	1.05e+06
Clone with L1_3-1 (antibody, V domains shown, based on hu1C7.v2) VH: EVQLLESGGGLVQPGGSLRLSCAASGFTFSSYGMSWVRQAPGKGLEWVASISGDGGSYIHYADSVKGRFTISRDNSKNTLYLQMNSLRAEDTAVYYCARLPYWGQGTLVTVSS VL: DIVMTQSPDSLAVSLGERATINCKSSQSLVRSGTQKDYLVWYQQKPGQPPKLLIYWASTRESGVPDRFSGSGSGTDFTLTISSLQAEDVAVYYCQQYNSYPLTFGQGTKVEIK	0.211	0.000213	1.01e+06
Clone with L1_7 (antibody, V domains shown, based on hu1C7.v2) VH: EVQLLESGGGLVQPGGSLRLSCAASGFTFSSYGMSWVRQAPGKGLEWVASISGDGGSYIHYADSVKGRFTISRDNSKNTLYLQMNSLRAEDTAVYYCARLPYWGQGTLVTVSS VL: DIVMTQSPDSLAVSLGERATINCKSSQSLLNAGNQKNYLTWYQQKPGQPPKLLIYWASTRESGVPDRFSGSGSGTDFTLTISSLQAEDVAVYYCQQYNSYPLTFGQGTKVEIKR	0.651	0.000719	1.1e+06
Clone with L1_3-9 (antibody, V domains shown, based on hu1C7.v2) VH: EVQLLESGGGLVQPGGSLRLSCAASGFTFSSYGMSWVRQAPGKGLEWVASISGDGGSYIHYADSVKGRFTISRDNSKNTLYLQMNSLRAEDTAVYYCARLPYWGQGTLVTVSS VL: DIVMTQSPDSLAVSLGERATINCKSSQSLHRSGNQKDYLVWYQQKPGQPPKLLIYWASTRESGVPDRFSGSGSGTDFTLTISSLQAEDVAVYYCQQYNSYPLTFGQGTKVEIK	0.136	0.000154	1.13e+06
Clone with L1_3-8 (antibody, V domains shown, based on hu1C7.v2) VH: EVQLLESGGGLVQPGGSLRLSCAASGFTFSSYGMSWVRQAPGKGLEWVASISGDGGSYIHYADSVKGRFTISRDNSKNTLYLQMNSLRAEDTAVYYCARLPYWGQGTLVTVSS VL: DIVMTQSPDSLAVSLGERATINCKSSQSLHLSGTQKDYLVWYQQKPGQPPKLLIYWASTRESGVPDRFSGSGSGTDFTLTISSLQAEDVAVYYCQQYNSYPLTFGQGTKVEIK	0.51	0.000391	767000
Clone with L3_5 (antibody, V domains shown, based on hu1C7.v2) VH: EVQLLESGGGLVQPGGSLRLSCAASGFTFSSYGMSWVRQAPGKGLEWVASISGDGGSYIHYADSVKGRFTISRDNSKNTLYLQMNSLRAEDTAVYYCARLPYWGQGTLVTVSS VL: not shown	0.928	0.000787	848000
Clone with L3_6 (antibody, V domains shown, based on hu1C7.v2) VH: EVQLLESGGGLVQPGGSLRLSCAASGFTFSSYGMSWVRQAPGKGLEWVASISGDGGSYIHYADSVKGRFTISRDNSKNTLYLQMNSLRAEDTAVYYCARLPYWGQGTLVTVSS VL: DIVMTQSPDSLAVSLGERATINCKSSQSLLNSGNQKNYLTWYQQKPGQPPKLLIYWASTRESGVPDRFSGSGSGTDFTLTISSLQAEDVAVYYCQQYSSYPLTFGQGTKVEIKR	0.69	0.00057	826000
Clone with L1_3-6 (antibody, V domains shown, based on hu1C7.v2) VH: EVQLLESGGGLVQPGGSLRLSCAASGFTFSSYGMSWVRQAPGKGLEWVASISGDGGSYIHYADSVKGRFTISRDNSKNTLYLQMNSLRAEDTAVYYCARLPYWGQGTLVTVSS VL: DIVMTQSPDSLAVSLGERATINCKSSQSLHQSGTQKDYLVWYQQKPGQPPKLLIYWASTRESGVPDRFSGSGSGTDFTLTISSLQAEDVAVYYCQQYNSYPLTFGQGTKVEIK	0.349	0.000379	1.09e+06
Clone with L1_3, L3, and H1_HCv2 (antibody, V domains shown) VH: EVQLLESGGGLVQPGGSLRLSCAASGFTFSQVGMSWVRQAPGKGLEWVASISGDGGSYIHYADSVKGRFTISRDNSKNTLYLQMNSLRAEDTAVYYCARLPYWGQGTLVTVSS VL: DIVMTQSPDSLAVSLGERATINCKSSQSLHRSGTQKDYLVWYQQKPGQPPKLLIYWASTRESGVPDRFSGSGSGTDFTLTISSLQAEDVAVYYCQQYNSYPLTFGQGTKVEIK	0.119	0.000116	982000
